In patent US20140179594A1, “STREPTOCOCCUS BACTERIOPHAGE LYSINS FOR TREATMENT OF GRAM POSITIVE BACTERIA IN COMPANION ANIMALS AND LIVESTOCK” (priority 2011, published 2014):

Columns and labels:
[1] = test system: vancomycin intermediate sensitivity Staphylococcus aureus (VISA); assay: PlySs2 in vitro test, standard MIC analysis; assay type: cell-based; settings: comparable in vitro tests (FIG. 18)
Procedure: (§1) FIG. 18. PlySS2 was tested by standard MIC analysis for its ability to kill strains of staphylococci. Included in the testing were resistant staphylococci such as Vancomycin resistant (VRSA), Vancomycin intermediate (VISA) and methicillin resistant (MRSA) staphylococci. The three VRSA strains tested represent half of all known isolates.

[2] = test system: vancomycin resistant Staphylococcus aureus (VRSA); assay: PlySs2 in vitro test, standard MIC analysis; assay type: cell-based; settings: comparable in vitro tests (FIG. 18)
Procedure: as §1

[3] = test system: S. suis strain 7997; assay: PlySs2 storage stability, killing effectiveness; assay type: physicochemical, Streptococcus suis
Procedure: FIG. 9. The stability of purified PlySS2 was determined by evaluating killing effectiveness against strain 7997 after storage at 37° C. for up to 48 hours in buffer.
FIG. 10. Killing effectiveness, assessed by OD600 growth of strain 7997 upon treatment with PlySs2 lysin after lysin storage at −80° C. for up to 7 months in buffer.
The stability of purified PlySs2 lysin was determined upon maintenance at 37° C. for up to 48 hours in buffer. The PlySs2 lysin is >90% stable up to 24 hours and maintains at least 50% activity after 48 hours.
Stability of the PlySS2 lysin was evaluated on freezer storage at −80° C. The PlySs2 lysin retains essentially 100% activity on storage in buffer for up to at least 7 months at −80° C. (FIG. 10).

[4] = test system: cultures from the oral cavities of rats; assay: Oral cavity microbiota study, clearing zones on lawns; assay type: cell-based; settings: 6 cultures, 10 μL drops on BHI agar; the cleared culture confirmed as S. aureus
[5] = test system: methicillin resistant Staphylococcus aureus strains (MRSA); assay: PlySs2 in vitro growth reduction and killing; assay type: cell-based
Procedure: (§2) Readings (OD600) were taken for each well in a spectrophotometer every minute over an hour. The OD density indicates the amount of bacterial cell growth in the microtiter well.
(§3) This activity test was first determined for the pathogenic S. suis strain 7997 with various concentrations of PlySs2 (FIG. 15A). Specific activity of purified PlySs2 lysin was also assessed in vitro against S. suis strain S735 (FIG. 15B). […] Additional results are tabulated below in TABLE 1.

[6] = test system: S. suis strain 7997; assay: PlySs2 lytic activity at various concentrations, OD600; assay type: cell-based, Streptococcus suis
Procedure: FIGS. 15A and 15B (A) PlySs2 has acute lytic activity against S. suis strain 7997 at, or above 8 ug/mL. (B) Activity of PlySs2 assessed in vitro against S. suis strain 5735.
as §2, §3

[7] = test system: S. aureus MW2 and 8325; assay: Assessment of resistance, incrementally increasing concentrations; assay type: cell-based; settings: concentration doubled daily up to 4× MIC over an 8-day period
[8] = test system: S. suis strain 7997; assay: PlySs2 biochemical characterization, OD600 turbidity
[9] = test system: purified S. suis peptidoglycan; assay: PlySs2 bond specificity, mass spectroscopy of digest; assay type: biochemical, Streptococcus suis; settings: overnight at 37° C.
Procedure: Investigations to determine the bond catalyzed by PlySs2 lysin have been undertaken. PlySs2 was incubated with purified S. suis peptidoglycan stripped of lipotechoic acid and carbohydrates overnight at 37° C. and the product submitted for mass spectroscopy.

B1: PlySs2: S. suis prophage lysin from strain 89/1591, amino acid sequence SEQ ID NO:3 (protein, listed as Streptococcus suis)
chain: MTTVNEALNNVRAQVGSGVSVGNGECYALASWYERMISPDATVGLGAGVGWVSGAIGDTISAKNIGSSYNWQANGWTVSTSGPFKAGQIVTLGATPGNPYGHVVIVEAVDGDRLTILEQNYGGKRYPVRNYYSAASYRQQVVHYITPPGTVAQSAPNLAGSRSYRETGTMTVTVDALNVRRAPNTSGEIVAVYKRGESFDYDTVIIDVNGYVWVSYIGGSGKRNYVATGATKDGKRFGNAWGTFK
[1]
  effectiveness against VISA strains: similarly effective
[2]
  effectiveness against VRSA strains: similarly effective
[3]; 37° C. in buffer, after 48 hours
  activity maintained: at least 50%
[3]; 37° C. in buffer, up to 24 hours
  stability of purified lysin: > 90%
[3]; −80° C. in buffer, up to at least 7 months
  activity retained on freezer storage: ~100%
[4]
  clearing zone around PlySs2 drops on lawns of rat oral cavity cultures: only appeared on one culture
[5]
  activity against MRSA strains: reduction in growth and killing
[6]
  concentration with acute lytic activity: ≥ 8 µg/mL
[7]
  development of resistance (4-fold increase in MIC): Neither S. aureus strain developed resistance
[8]; S. suis strain 7997
  NaCl concentration of greatest activity: 0 mM
[8]; S. suis strain 7997, Bis-tris propane (BTP) buffer
  pH up to which acute activity is shown: ≤ 9.7
[8]; S. suis strain 7997, phosphate/citrate buffer
  pH of strongest activity (optimal pH): 8.0
[9]
  bond catalyzed (cleavage type): N-acetylmuramoyl,-L-alanine amidase
